Kd data for 1 substance are collected here from paper PMC4130151.

As usually defined, the Kd is the free concentration of one partner at which half of the binding sites on the other are occupied at equilibrium, for simple one-to-one binding. The low end stands for higher affinity, the high end for lower affinity.

This experiment deals with Fibronectin (UniProt P02751). Description: SPR; BIAcore T100; FN covalently immobilised on CM5 chip; EF-Tu 0-10.0 μM injected in 10 mM HEPES, 150 mM NaCl, 3 mM EDTA, 0.005% P20, pH 7.4, 30 μL/min, 25°C; KD from equilibrium. (In general: SPR reads the build-up and loss of mass on a sensor chip optically.)
Chain of UniProt P02751 (P02751 32-2477): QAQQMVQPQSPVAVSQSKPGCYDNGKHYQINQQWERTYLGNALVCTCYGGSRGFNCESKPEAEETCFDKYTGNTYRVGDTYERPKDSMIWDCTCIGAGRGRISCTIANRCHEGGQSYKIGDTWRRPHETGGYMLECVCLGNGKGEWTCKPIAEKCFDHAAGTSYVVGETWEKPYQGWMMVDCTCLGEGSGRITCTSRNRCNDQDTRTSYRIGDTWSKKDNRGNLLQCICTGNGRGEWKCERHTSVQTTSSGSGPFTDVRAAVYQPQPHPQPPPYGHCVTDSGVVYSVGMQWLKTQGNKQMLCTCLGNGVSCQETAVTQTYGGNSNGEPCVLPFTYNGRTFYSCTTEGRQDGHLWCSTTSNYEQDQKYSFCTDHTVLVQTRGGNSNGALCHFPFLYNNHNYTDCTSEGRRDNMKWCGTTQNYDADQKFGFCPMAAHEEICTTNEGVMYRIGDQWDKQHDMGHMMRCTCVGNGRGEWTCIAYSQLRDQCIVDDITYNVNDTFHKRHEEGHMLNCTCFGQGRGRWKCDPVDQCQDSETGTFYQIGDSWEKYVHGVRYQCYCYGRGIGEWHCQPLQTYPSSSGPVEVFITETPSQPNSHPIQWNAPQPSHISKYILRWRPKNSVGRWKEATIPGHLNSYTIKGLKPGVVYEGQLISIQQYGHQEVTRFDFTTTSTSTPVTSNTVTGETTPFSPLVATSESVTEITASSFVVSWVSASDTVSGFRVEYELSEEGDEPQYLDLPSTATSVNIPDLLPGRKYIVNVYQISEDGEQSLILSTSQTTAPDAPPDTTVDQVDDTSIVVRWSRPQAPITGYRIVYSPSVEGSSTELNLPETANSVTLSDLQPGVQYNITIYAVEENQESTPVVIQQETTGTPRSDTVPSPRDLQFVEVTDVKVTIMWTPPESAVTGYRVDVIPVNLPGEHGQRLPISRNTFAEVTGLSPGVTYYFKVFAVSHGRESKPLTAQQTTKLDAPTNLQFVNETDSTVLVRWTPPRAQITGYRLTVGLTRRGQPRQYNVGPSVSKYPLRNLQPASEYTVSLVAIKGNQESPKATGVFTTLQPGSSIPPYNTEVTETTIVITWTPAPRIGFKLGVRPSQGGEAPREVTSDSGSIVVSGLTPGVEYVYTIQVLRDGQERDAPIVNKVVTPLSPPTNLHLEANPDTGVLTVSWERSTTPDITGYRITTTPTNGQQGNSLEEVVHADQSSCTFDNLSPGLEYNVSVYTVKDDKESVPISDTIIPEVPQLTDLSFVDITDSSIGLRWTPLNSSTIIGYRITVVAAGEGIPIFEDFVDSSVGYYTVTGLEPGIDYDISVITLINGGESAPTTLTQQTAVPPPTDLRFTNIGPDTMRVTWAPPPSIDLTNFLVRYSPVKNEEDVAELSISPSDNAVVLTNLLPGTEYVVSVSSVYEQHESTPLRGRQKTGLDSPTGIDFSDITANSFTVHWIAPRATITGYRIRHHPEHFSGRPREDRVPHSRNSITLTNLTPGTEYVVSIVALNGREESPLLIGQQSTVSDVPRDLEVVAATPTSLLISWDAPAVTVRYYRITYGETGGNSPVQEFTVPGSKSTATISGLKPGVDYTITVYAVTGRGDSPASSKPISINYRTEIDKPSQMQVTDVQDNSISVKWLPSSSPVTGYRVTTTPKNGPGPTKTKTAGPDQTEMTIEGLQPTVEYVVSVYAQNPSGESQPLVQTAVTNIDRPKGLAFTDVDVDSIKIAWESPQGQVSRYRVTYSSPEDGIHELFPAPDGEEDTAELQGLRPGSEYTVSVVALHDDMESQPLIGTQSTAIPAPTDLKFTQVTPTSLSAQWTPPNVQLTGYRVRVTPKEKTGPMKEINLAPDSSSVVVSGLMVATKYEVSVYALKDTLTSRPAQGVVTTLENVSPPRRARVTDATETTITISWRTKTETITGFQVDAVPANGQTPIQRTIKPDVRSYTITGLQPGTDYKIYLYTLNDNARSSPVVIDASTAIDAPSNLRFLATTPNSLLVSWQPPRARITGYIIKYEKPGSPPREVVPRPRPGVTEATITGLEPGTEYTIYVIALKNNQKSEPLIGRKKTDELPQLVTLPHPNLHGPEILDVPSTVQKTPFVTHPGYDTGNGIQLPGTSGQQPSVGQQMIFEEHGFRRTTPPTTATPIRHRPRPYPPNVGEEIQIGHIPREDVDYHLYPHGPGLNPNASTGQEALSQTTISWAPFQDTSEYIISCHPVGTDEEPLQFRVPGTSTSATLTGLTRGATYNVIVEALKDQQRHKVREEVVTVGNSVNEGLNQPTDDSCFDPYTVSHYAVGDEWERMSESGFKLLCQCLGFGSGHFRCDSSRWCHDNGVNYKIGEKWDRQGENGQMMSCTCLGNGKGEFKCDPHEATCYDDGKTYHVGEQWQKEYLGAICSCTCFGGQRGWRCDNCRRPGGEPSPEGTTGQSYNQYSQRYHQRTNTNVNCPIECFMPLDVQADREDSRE

With “Mycobacterium avium subsp. paratuberculosis elongation factor Tu (from UniProt Q73SD1 1-396) (natural protein)”, the dissociation constant Kd came out at 3.1 µM.
